{
  "source": "paper PMC3079881",
  "about": "(Developmental cell, 2011)",
  "target": "the molecule itself",
  "test": "negative-stain electron microscopy of purified complexes",
  "data": [
    {"protein": "Cdc11 (natural protein, S. cerevisiae, UniProt P32458 1-415, looked up) MSGIIDASSALRKRKHLKRGITFTVMIVGQSGSGRSTFINTLCGQQVVDTSTTILLPTDTSTEIDLQLREETVELEDDEGVKIQLNIIDTPGFGDSLDNSPSFEIISDYIRHQYDEILLEESRVRRNPRFKDGRVHCCLYLINPTGHGLKEIDVEFIRQLGSLVNIIPVISKSDSLTRDELKLNKKLIMEDIDRWNLPIYNFPFDEDEISDEDYETNMYLRTLLPFAIIGSNEVYEMGGDVGTIRGRKYPWGILDVEDSSISDFVILRNALLISHLHDLKNYTHEILYERYRTEALSGESVAAESIRPNLTKLNGSSSSSTTTRRNTNPFKQSNNINNDVLNPASDMHGQSTGENNETYMTREEQIRLEEERLKAFEERVQQELLLKRQELLQREKELREIEARLEKEAKIKQEE", "values": [
      {"measurement": "binding result", "value": "binds"}
    ]}
  ]
}
